Reference: article PMC12480952 (Nature Communications, 2025)
Residue numbers refer to the chain shown, from its start. Names may count otherwise. Values belong to the binder of their own block, whether it stands above or below them.

Molecular target: FITC-BIM BH3 (FITC at the N-terminus)
Assay: fluorescence polarisation

B1: BCL-2ΔLΔC WT (domain or fragment, human)
chain: MAHAGRTGYDNREIVMKYIHYKLSQRGYEWDAGDDVEENRTEAPEGTESEVVHLTLRQAGDDFSRRYRRDFAEMSSQLHLTPFTARGRFATVVEELFRDGVNWGRIVAFFEFGGVMCVESVNREMSPLVDNIALWMTEYLNRHLHTWIQDNGGWDAFVELYGPSMRA
EC90: 8.6 nM

B4: BCL-2ΔLΔC F104L (domain or fragment, human)
chain: B1 chain with F63L
EC90: 1.6 nM

B5: BCL-2ΔLΔC D103Y (domain or fragment, human)
chain: B1 chain with D62Y
EC90: 21 nM

B7: BCL-2ΔLΔC A113G (domain or fragment, human)
chain: B1 chain with A72G
EC90: 23 nM

Continued, values first:

EC90: 8.7 nM
B2: BCL-2ΔLΔC R129L (domain or fragment, human)
chain: B1 chain with R88L

EC90: 5.8 nM
B3: BCL-2ΔLΔC G101V (domain or fragment, human)
chain: B1 chain with G60V

EC90: 17 nM
B6: BCL-2ΔLΔC V156D (domain or fragment, human)
chain: B1 chain with V115D
